Laboratory results: IntAct's records for PubMed 28065597

How the values were obtained:
[1] = biological target: grb2_human GRB2 (UniProt P62993)
[2] = biological target: igf1r_human IGF1R (UniProt P08069)
[3] = biological target: erbb4_human ERBB4 (UniProt Q15303)
[4] = biological target: fgfr2_human FGFR2 (UniProt P21802)
[5] = biological target: fgfr4_human FGFR4 (UniProt P22455)
[6] = biological target: vgfr2_human KDR (UniProt P35968)
[7] = biological target: igf1r_human IGF1R (UniProt P08069); remark: listed apart in the source

Chain of Tyrosine-protein phosphatase non-receptor type 6 (Homo sapiens), P29350 D419A;C453S (P29350 whole entry D419A/C453S): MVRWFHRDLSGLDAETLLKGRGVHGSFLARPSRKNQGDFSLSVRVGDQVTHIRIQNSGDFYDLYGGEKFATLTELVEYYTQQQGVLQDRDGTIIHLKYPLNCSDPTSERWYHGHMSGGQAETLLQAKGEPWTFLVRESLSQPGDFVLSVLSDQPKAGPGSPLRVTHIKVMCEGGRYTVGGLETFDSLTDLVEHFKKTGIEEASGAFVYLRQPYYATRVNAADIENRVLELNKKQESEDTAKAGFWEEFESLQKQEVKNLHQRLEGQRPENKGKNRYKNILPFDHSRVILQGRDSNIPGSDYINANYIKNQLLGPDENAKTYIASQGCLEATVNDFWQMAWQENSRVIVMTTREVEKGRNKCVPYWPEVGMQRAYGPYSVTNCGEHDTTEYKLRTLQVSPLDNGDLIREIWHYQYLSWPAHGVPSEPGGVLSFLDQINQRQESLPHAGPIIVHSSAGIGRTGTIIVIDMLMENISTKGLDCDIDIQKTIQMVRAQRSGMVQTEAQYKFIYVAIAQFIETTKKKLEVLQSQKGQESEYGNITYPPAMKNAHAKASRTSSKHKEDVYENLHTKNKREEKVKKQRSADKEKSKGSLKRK
Chain of Tyrosine-protein phosphatase non-receptor type 6 (Homo sapiens), P29350 C453S (P29350 whole entry C453S): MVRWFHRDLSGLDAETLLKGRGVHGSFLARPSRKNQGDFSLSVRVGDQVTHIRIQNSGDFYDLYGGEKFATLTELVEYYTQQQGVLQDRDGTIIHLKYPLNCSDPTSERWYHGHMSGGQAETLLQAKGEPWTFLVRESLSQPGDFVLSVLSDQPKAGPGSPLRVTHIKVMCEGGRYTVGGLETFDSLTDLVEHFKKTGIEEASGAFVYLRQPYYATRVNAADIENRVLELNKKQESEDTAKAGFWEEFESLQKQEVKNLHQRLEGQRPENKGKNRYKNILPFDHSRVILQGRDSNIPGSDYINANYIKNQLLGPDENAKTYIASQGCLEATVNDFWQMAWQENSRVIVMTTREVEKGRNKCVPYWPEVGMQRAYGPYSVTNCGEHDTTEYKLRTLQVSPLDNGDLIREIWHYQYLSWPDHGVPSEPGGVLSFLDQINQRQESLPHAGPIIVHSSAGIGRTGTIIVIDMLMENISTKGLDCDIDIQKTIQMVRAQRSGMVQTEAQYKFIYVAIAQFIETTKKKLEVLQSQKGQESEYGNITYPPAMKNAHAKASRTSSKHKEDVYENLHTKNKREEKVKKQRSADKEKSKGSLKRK
Chain of igf1r_human IGF1R (P08069 whole entry, looked up): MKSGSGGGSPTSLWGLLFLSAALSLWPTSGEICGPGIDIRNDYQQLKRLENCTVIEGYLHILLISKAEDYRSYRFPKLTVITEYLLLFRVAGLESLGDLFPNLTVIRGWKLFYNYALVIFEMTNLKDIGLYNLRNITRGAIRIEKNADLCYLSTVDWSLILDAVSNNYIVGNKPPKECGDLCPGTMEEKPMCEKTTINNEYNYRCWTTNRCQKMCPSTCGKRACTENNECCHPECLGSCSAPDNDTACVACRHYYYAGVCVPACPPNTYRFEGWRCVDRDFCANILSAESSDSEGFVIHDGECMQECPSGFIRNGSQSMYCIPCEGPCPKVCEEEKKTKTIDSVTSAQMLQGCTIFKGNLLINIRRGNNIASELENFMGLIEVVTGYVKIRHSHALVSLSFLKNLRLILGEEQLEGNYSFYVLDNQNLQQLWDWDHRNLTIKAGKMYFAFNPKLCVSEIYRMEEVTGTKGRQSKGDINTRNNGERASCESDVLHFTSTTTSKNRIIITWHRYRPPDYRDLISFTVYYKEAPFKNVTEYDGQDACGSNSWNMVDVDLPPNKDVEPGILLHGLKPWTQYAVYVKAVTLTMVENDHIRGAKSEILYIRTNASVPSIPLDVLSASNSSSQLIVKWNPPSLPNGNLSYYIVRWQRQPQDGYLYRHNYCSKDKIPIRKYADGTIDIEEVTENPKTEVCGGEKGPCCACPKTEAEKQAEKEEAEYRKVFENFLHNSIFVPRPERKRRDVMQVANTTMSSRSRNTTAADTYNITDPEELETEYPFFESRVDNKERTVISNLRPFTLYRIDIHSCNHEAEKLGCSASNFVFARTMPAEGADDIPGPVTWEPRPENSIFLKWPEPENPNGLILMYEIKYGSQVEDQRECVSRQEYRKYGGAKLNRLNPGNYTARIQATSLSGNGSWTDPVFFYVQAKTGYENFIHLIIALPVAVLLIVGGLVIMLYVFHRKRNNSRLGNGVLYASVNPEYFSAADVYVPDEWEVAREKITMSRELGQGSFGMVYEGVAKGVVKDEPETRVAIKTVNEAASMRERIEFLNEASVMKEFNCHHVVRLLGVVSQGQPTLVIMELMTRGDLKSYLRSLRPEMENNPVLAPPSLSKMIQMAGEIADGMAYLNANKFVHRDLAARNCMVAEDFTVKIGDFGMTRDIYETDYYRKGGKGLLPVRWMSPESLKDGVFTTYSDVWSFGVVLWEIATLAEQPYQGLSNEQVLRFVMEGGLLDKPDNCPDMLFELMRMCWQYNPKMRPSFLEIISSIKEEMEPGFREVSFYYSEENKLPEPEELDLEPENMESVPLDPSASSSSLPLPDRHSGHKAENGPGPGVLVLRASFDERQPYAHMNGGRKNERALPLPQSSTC
Chain of fgfr4_human FGFR4 (P22455 whole entry, looked up): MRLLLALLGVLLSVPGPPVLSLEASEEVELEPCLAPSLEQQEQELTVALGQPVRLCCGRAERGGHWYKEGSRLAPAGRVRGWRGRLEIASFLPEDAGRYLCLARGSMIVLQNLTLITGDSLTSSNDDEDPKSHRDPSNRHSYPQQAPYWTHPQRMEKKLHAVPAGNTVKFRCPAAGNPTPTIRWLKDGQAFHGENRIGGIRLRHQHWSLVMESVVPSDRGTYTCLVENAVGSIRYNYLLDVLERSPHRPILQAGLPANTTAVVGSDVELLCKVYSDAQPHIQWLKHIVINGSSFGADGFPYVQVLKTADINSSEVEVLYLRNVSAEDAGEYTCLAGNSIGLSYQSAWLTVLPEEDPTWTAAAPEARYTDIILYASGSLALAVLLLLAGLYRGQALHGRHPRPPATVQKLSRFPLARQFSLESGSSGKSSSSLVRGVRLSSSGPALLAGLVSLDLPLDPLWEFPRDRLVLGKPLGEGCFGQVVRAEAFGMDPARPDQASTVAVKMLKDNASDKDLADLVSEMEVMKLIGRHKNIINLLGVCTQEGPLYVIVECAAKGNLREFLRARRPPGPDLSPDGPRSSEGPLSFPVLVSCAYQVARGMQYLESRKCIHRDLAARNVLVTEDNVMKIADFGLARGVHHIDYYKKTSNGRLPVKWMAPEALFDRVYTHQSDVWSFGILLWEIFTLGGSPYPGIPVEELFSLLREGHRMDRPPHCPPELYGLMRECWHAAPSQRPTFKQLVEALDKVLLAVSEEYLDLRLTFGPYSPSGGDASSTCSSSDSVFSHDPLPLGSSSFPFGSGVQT
Chain of erbb4_human ERBB4 (Q15303 whole entry): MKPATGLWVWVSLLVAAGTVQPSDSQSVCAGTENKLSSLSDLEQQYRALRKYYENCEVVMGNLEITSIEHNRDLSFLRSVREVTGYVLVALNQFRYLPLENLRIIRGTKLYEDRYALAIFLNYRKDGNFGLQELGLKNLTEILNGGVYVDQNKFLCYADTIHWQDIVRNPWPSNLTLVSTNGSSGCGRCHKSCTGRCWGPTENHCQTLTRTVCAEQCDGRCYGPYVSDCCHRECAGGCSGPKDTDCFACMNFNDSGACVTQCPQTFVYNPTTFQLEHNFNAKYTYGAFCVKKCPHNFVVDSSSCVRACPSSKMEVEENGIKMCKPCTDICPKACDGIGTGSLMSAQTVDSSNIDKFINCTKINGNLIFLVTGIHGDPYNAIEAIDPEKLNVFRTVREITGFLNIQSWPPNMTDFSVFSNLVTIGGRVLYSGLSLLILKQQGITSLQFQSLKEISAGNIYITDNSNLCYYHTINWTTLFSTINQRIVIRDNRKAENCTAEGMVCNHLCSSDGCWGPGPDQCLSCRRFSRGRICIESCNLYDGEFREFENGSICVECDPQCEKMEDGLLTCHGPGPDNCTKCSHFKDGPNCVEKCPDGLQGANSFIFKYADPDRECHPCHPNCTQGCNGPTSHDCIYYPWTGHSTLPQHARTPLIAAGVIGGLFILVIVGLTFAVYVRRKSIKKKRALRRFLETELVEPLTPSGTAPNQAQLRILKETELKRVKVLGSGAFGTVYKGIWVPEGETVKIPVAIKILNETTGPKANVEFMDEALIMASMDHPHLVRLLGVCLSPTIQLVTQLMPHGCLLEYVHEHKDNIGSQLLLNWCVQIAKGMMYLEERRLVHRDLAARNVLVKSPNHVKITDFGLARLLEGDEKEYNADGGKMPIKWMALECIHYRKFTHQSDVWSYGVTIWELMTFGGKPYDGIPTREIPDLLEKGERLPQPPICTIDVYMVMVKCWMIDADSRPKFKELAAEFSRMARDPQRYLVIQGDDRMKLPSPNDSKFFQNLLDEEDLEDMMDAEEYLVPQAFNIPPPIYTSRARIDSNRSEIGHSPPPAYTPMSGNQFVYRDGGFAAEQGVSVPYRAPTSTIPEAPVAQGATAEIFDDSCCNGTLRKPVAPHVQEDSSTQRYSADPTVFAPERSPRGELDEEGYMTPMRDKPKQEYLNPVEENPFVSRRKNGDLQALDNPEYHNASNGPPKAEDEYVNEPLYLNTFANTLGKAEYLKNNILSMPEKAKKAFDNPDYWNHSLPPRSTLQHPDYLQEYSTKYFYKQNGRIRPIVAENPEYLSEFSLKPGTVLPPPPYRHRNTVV
Chain of grb2_human GRB2 (P62993 whole entry, looked up): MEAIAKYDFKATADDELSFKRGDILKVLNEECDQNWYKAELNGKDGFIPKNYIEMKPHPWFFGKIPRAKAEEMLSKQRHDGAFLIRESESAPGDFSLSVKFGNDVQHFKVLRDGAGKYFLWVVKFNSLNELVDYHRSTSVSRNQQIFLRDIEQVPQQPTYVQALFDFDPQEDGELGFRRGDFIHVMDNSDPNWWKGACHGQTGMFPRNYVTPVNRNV

Q: How did the “effect of a mutation on the interaction” value [1] turn out when “Receptor-type tyrosine-protein phosphatase alpha (Homo sapiens) (from UniProt P18433) Y798F” was run?
A: decreasing interaction

Q: Which “effect of a mutation on the interaction” value [2] does the source give for “Tyrosine-protein phosphatase non-receptor type 6 (Homo sapiens), P29350 C453S” here?
A: decreasing interaction

Q: And the “effect of a mutation on the interaction” value [3]?
A: with no effect

Q: And the “effect of a mutation on the interaction” value [4]?
A: with no effect

Q: What about the “effect of a mutation on the interaction” value [5] of the same substance?
A: with no effect

Q: What about the “effect of a mutation on the interaction” value [6] of the same substance?
A: with no effect

Q: With “Tyrosine-protein phosphatase non-receptor type 6 (Homo sapiens), P29350 D419A;C453S” as the substance, how does the “effect of a mutation on the interaction” value [2] read?
A: decreasing interaction

Q: And the “effect of a mutation on the interaction” value [3]?
A: with no effect

Q: And the “effect of a mutation on the interaction” value [4]?
A: with no effect

Q: And the “effect of a mutation on the interaction” value [5]?
A: with no effect

Q: What about the “effect of a mutation on the interaction” value [6] of the same substance?
A: with no effect

Q: And the “effect of a mutation on the interaction” value [7]?
A: with no effect
